± gives the uncertainty stated by the source.
Assay: self-splicing fitness, log relative to wild type (ln ratio); higher = more splicing; Tetrahymena group I intron in knt gene, E. coli kanamycin selection, DiMSum; sequences stand for … in CUCUCU…GGAGGGAAAAGUUAUCAGGCAUGCACCUGGUAGCUAGUCUUUAAACCAAUAGAUUGCAUCGGUUUAAAAGGCAAGACCGUCAAAUUGCGGGAAAGGGGUCAACAGCCGUUCAGUACCAAGUCUCAGGGGAAACUUUGAGAUGGCCUUGCAAAGGGUAUGGUAAUAAGCUGACGGACAUGGUCCUAACCACGCAGCCAAGUCCUAAGUCAACAGAUCUUCUGUUGAUAUGGAUGCAGUUCACAGACUAAAUGUCGGUCGGGGAAGAUGUAUUCUUCUCAUAAGAUAUAGUCGGACCUCUCCUUAAUGGGAGCUAGCGGAUGAAGUGAUGCAACACUGGAGCCGCUGGGAACUAAUUUGUAUGCGAAAGUAUAUUGAUUAGUUUUGGAGUACUCGUGGUCG
How it was run: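 Colonies from six replicate transformations of E. coli BL21(DE3) were pooled and amplicon-sequenced on an Illumina HiSeq 2500. The library placed an intron with all eight P1ex-region nucleotides randomised inside the knt kanamycin-resistance gene on pET-22b(+), and cells grew overnight at 37°C or 30°C on LB agar with or without 25 μg/mL kanamycin (plus 100 μg/mL carbenicillin, 50 μM IPTG, 0.2% rhamnose). Fitness is the DiMSum error-weighted combination of wild-type-normalised replicate fold changes, kanamycin versus none.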

Sequence | self-splicing fitness (ln) (30 °C) | self-splicing fitness (ln) (37 °C)
AACCAGCAAUAUUACGGGCA | -0.402 ± 0.041 | 0.117 ± 0.053
UCGAAGCAAUAUUACGCUCU | – | -1.36 ± 0.34
GAUAAGCAAUAUUACGAAUC | -3.17 ± 0.25 | -2.16 ± 0.25
GCACAGCAAUAUUACGUCGA | -0.827 ± 0.05 | -0.258 ± 0.062
CAAUAGCAAUAUUACGAUUC | -3.4 ± 0.14 | -1.24 ± 0.14
UGGGAGCAAUAUUACGGUUC | – | -0.762 ± 0.44
UUGGAGCAAUAUUACGUGGC | -3.14 ± 0.24 | -0.804 ± 0.25
ACGAAGCAAUAUUACGGAGC | -3.94 ± 0.27 | -1.29 ± 0.23
CCCCAGCAAUAUUACGCACU | -4.21 ± 0.33 | -2.68 ± 0.22
GCUUAGCAAUAUUACGAGCA | -2.24 ± 0.14 | -0.963 ± 0.13
UGGUAGCAAUAUUACGCGCC | -1.45 ± 0.3 | -2.02 ± 0.42
ACCAAGCAAUAUUACGACCA | -1.03 ± 0.081 | -1.02 ± 0.1
CGGCAGCAAUAUUACGAAAG | -0.748 ± 0.1 | -0.538 ± 0.12
GCAAAGCAAUAUUACGAAUC | -1.68 ± 0.12 | -0.115 ± 0.13
GGGCAGCAAUAUUACGGGGG | -3.44 ± 0.41 | –
UUUCAGCAAUAUUACGGUGG | -1.94 ± 0.067 | -0.673 ± 0.075
UGUUAGCAAUAUUACGGUAU | -2.59 ± 0.4 | -1.95 ± 0.28
CGAAAGCAAUAUUACGUGGA | -3.24 ± 0.13 | -1.66 ± 0.096
AGAUAGCAAUAUUACGCUAG | -3.21 ± 0.4 | -2.24 ± 0.42
UUCUAGCAAUAUUACGUCUG | -2.22 ± 0.12 | -2.49 ± 0.21
UGAUAGCAAUAUUACGAAUA | -3.62 ± 0.47 | -0.595 ± 0.2
AGCUAGCAAUAUUACGGUUC | -3.44 ± 0.28 | -0.512 ± 0.17
UAAGAGCAAUAUUACGCUGA | – | -1.15 ± 0.29
ACCUAGCAAUAUUACGGGGC | -3.06 ± 0.15 | -1.66 ± 0.15
CGAAAGCAAUAUUACGGGGG | -2.85 ± 0.14 | -1.96 ± 0.13
CGCCAGCAAUAUUACGGCUG | -4.51 ± 0.36 | -1.67 ± 0.19
GGCAAGCAAUAUUACGAUUA | -0.726 ± 0.1 | -0.234 ± 0.093

Sequence | self-splicing fitness (ln) (30 °C) | self-splicing fitness (ln) (37 °C)
CGCAAGCAAUAUUACGCUGG | -3.06 ± 0.31 | -2.09 ± 0.25
ACAGAGCAAUAUUACGAGGU | -3.36 ± 0.11 | -2.66 ± 0.15
AGUUAGCAAUAUUACGUAAG | -2.42 ± 0.21 | -0.816 ± 0.27
UGUGAGCAAUAUUACGGCCG | -0.763 ± 0.15 | 0.477 ± 0.27
AGAUAGCAAUAUUACGGCAC | -1.52 ± 0.16 | -0.639 ± 0.23
UCUAAGCAAUAUUACGGGGA | -1.76 ± 0.11 | -0.821 ± 0.12
AGGCAGCAAUAUUACGAAGC | -4.02 ± 0.42 | -2.73 ± 0.33
AAACAGCAAUAUUACGUCCC | -1.44 ± 0.17 | 0.29 ± 0.17
GCAGAGCAAUAUUACGUAGA | -2.99 ± 0.15 | -1.78 ± 0.14
GAGAAGCAAUAUUACGAGUC | -2.11 ± 0.11 | -1.78 ± 0.2
GACGAGCAAUAUUACGCCAU | -2.23 ± 0.49 | –
GGCGAGCAAUAUUACGAUGC | -1.04 ± 0.16 | -1.43 ± 0.26
UUACAGCAAUAUUACGUGGU | -3.33 ± 0.13 | -2.36 ± 0.13
GUCUAGCAAUAUUACGUGCC | -1.54 ± 0.24 | -0.468 ± 0.28
AUCUAGCAAUAUUACGGUCC | -1.34 ± 0.21 | 1.22 ± 0.25
CUAAAGCAAUAUUACGAUCC | -2.81 ± 0.27 | -1.13 ± 0.36
UCUUAGCAAUAUUACGAGAC | -2.23 ± 0.25 | –
AUGAAGCAAUAUUACGAGGU | -3.32 ± 0.15 | -2.07 ± 0.18
GCAAAGCAAUAUUACGCGAG | -2.18 ± 0.28 | -1.11 ± 0.18
UCUGAGCAAUAUUACGAUAA | – | -2.05 ± 0.43
CACUAGCAAUAUUACGAGGU | -5.22 ± 0.45 | -2.6 ± 0.23
ACUCAGCAAUAUUACGAGCU | -1.04 ± 0.064 | -0.447 ± 0.079
AUAAAGCAAUAUUACGCCCA | 0.167 ± 0.18 | -0.307 ± 0.23
CAUUAGCAAUAUUACGGGCC | -2.71 ± 0.23 | -2.95 ± 0.43
GAGUAGCAAUAUUACGCGCG | -0.178 ± 0.21 | -1 ± 0.2
UGAUAGCAAUAUUACGCUUG | -0.924 ± 0.091 | 0.0889 ± 0.14
CCAGAGCAAUAUUACGAGUU | -1.94 ± 0.14 | -2.9 ± 0.27

Sequence | self-splicing fitness (ln) (30 °C) | self-splicing fitness (ln) (37 °C)
UAAUAGCAAUAUUACGCCUA | -0.175 ± 0.16 | 0.0899 ± 0.19
AGCGAGCAAUAUUACGCUGU | -3.15 ± 0.32 | -2.08 ± 0.22
UCGGAGCAAUAUUACGUGAG | -1.65 ± 0.096 | -1.01 ± 0.12
AGCUAGCAAUAUUACGUAAG | -2.91 ± 0.12 | -1.71 ± 0.14
UGUAAGCAAUAUUACGGCAA | -0.056 ± 0.1 | 0.0443 ± 0.12
GCAUAGCAAUAUUACGUGCA | -2.74 ± 0.17 | -1.21 ± 0.14
UUUUAGCAAUAUUACGGUGU | -3.34 ± 0.38 | –
UCAAAGCAAUAUUACGACGC | -3.24 ± 0.16 | -2.09 ± 0.14
AUGAAGCAAUAUUACGUAGG | -2.79 ± 0.16 | -1.25 ± 0.18
AAGCAGCAAUAUUACGGUCU | -0.0787 ± 0.043 | 0.176 ± 0.063
AGUUAGCAAUAUUACGUCCU | 0.147 ± 0.09 | 0.0687 ± 0.091
UCGAAGCAAUAUUACGCUUA | -2.28 ± 0.28 | -3.61 ± 0.37
CUUAAGCAAUAUUACGGCUA | -2.73 ± 0.45 | –
UCCCAGCAAUAUUACGAGGA | -2.18 ± 0.11 | -1.36 ± 0.12
UCAGAGCAAUAUUACGGAUA | -2.81 ± 0.3 | –
UUACAGCAAUAUUACGGGGU | -4.73 ± 0.22 | -3.21 ± 0.17
ACAAAGCAAUAUUACGCUGG | -1.3 ± 0.095 | -0.426 ± 0.12
CGUAAGCAAUAUUACGGCCC | – | -1.43 ± 0.3
UGUAAGCAAUAUUACGCCUG | 0.084 ± 0.088 | -0.11 ± 0.1
AGGUAGCAAUAUUACGUCGU | -1.761 ± 0.015 | -0.841 ± 0.034
AACGAGCAAUAUUACGUGCC | -3.37 ± 0.27 | -1.85 ± 0.3
ACGGAGCAAUAUUACGCACA | -2.08 ± 0.36 | -2.46 ± 0.37
UUGGAGCAAUAUUACGUACC | -3.52 ± 0.43 | -2.01 ± 0.44
GGAGAGCAAUAUUACGACCA | -2.28 ± 0.21 | -1.92 ± 0.27
AAUAAGCAAUAUUACGCCUC | -2.43 ± 0.35 | -1.19 ± 0.31

From the supplement of paper PMC7877785
